Results: patent US20050095674A1, “Cannabinoid receptor interacting proteins and methods of use” (priority 2003, published 2005)

How the values were obtained:
[1] = target: rat CB1 cannabinoid receptor, wild type (rat) (UniProt P20272); assay: cell-based or functional assay
[2] = target: T1, amino acids at positions 418-472 of the human cannabinoid receptor (CB1) fused to the GALA DNA binding domain (human, UniProt P04386 1-147; P21554 418-472); assay: yeast two-hybrid, beta-galactosidase colour
T1 construct: Yeast two-hybrid bait in Y190 cells; also called bait plasmid

[3] = target: T2, CB1-464 truncated receptor (Rattus norvegicus, UniProt P20272); assay: Whole-cell patch clamp of Ca2+ currents in SCG neurons expressing the CB1-464 truncated receptor; format: cell-based; conditions: coexpression of CRIP1a with CB1-464 truncated receptor
T2 construct: expressed in transfected cells

CB1 receptors = target: T3, CB1 receptors (Rattus norvegicus, UniProt P20272); assay: Whole-cell patch clamp of Ca2+ currents in SCG neurons microinjected with rCB1 and rat CRIP1a; format: cell-based
T3 construct: expressed in transfected cells

[4] = target: T4, GST alone coupled to Glutathione Sepharose-4B (UniProt P08515 1-218 = GST); assay: affinity chromatography on Glutathione Sepharose-4B, SDS-PAGE and S-tag Western blot
T4 construct: the lane descriptions speak of glutathione Sepharose only; also called GST column; glutathione sepharose only column

[5] = target: T5, C-terminus (amino acids 418-472) of the CB1 cannabinoid receptor (Homo sapiens, UniProt P21554); assay: Yeast two hybrid, domains of CRIP1b against the CB1 C-terminus; format: binding; conditions: CRIP1b parts tested alone and in combination
T5 construct: expressed in transfected cells; host or cells: Y190 yeast cells
Protocol: A human brain cDNA library (Clontech) containing 5×10^6 independent clones with an average insert size of 1.5 kb fused to the GALA activation domain was cotransformed into Y 190 yeast cells with a bait plasmid consisting of the amino acids at positions 418-472 of the human cannabinoid receptor (CB1) fused to the GALA DNA binding domain. An overnight culture of Y190 cells was diluted to an OD600 of 0.08 (20 ml/reaction) and incubated at 30° C. until an OD600 of 0.2-0.4. The cells were washed in […] of water and resuspended in […] of 100 mM LiAc, 10 mM Tris-HCl, pH 7.5, and 1 mM EDTA (LiAc/TE). Single stranded herring testis DNA (200 μg), 20 μg of bait plasmid, 20 μg of carrier plasmid, and 1.2 ml of 40% polyethyleneglycol/LiAc/TE were added to the cells, followed by incubation at 30° C. for 30 minutes at 225 rpm. […] After incubation of the plates at 30° C. for 3-5 days, β-galactosidase activity of the colonies was assessed by lifting colonies onto filters, lysing the colonies by freezing in liquid nitrogen, and exposing the filters to 20 mg/ml X-gal in phospate-containing buffer.
To determine which domains of CRIP1b interact with the C-terminus (amino acids 418-472) of the CB1 cannabinoid receptor, yeast two hybrid experiments were performed. […] When each exon was tested alone, no interaction was detected (FIGS. 5A, 5C, and 5E). […]

GST-CB1 (418-472) = target: T6, GST-CB1 (418-472) (Homo sapiens, UniProt P21554); assay: In vitro pull-down assay (GST affinity chromatography) of bacterially expressed proteins; format: binding
T6 construct: encoding amino acids at position 418-472 of the CB1 receptor into the pGEX-4T-1 expression vector; made in house; host or cells: bacteria; BL21(DE3) E. coli is stated for CRIP1b only
Protocol: To confirm the interaction between the CB1 cannabinoid receptor and the interacting protein CRIP1b, in vitro pull-down assays of bacterially expressed proteins were performed. A GST fusion peptide was created between GST and a peptide of the CB1 receptor by cloning the polynucleotide sequence encoding amino acids at position 418-472 of the CB1 receptor into the pGEX-4T-1 expression vector. This GST fusion peptide was expressed and purified using standard protocols. GST alone and purified GST/CB1 fusion peptide were coupled to a first and second Glutathione Sepharose-4B column, respectively, as per standard protocols (Smith and Johnson, 1988, Gene, 67:31-40).
Polymerase chain reaction (PCR) was used to amplify the amino acids at positions 34-128 of CRIP1b in the pCT2 shuttle vector with EcoRI and XhoI restriction endonuclease sites. The PCR product was inserted in-frame into a pET30C expression plasmid harboring an S-tag (Novagen, Wis.). The resulting plasmid was transformed into BL21(DE3) E. coli cells, and these cells were induced to express CRIP1b by the introduction of isopropyl β-D-thiogalactopyranoside.
The bacteria were lysed in a buffer containing 50 mM Tris-Cl (pH 8.0), 1 mM EDTA, 100 mM NaCl, phenylmethylsulfonylfluoride (PMSF) (8 μl of 50 mM PMSF per gram of bacterial pellet). […]

[6] = target: T7, C-terminal tail of CB1 (amino acids 464-473 of rat CB1) (Rattus norvegicus, UniProt P20272); assay: Yeast two-hybrid, CB1 receptor interaction site with CRIP1b; format: binding
T7 construct: C-terminal tail of CB1 (amino acids 464-473 of rat CB1); expressed in transfected cells; host or cells: yeast (strain not restated for this experiment)
From the text: The yeast two-hybrid technique was used to determine the CB1 receptor interaction site with CRIP1b. The C-terminus of the CB1 receptor contains separate domains critical for desensitization and internalization (Hsieh et al., 1999; Jin et al., 1999).

T3 sequence (P20272 whole entry): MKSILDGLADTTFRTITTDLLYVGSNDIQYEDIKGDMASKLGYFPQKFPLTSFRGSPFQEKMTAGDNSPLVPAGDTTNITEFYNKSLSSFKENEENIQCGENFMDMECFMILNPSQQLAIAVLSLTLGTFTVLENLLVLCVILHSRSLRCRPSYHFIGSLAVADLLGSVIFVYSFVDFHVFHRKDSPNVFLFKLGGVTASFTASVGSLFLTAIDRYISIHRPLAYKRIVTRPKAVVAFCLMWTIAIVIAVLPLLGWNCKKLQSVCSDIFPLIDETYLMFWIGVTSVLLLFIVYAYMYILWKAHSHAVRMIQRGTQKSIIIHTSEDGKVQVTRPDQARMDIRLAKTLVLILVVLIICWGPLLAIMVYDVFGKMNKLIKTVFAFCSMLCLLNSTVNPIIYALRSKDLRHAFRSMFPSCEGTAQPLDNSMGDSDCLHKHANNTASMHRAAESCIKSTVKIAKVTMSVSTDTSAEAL
T5 sequence (P21554 418-472): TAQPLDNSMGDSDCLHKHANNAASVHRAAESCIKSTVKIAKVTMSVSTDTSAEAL
T6 sequence (P21554 418-472): as above
T2 sequence (P20272 1-464 limits assumed): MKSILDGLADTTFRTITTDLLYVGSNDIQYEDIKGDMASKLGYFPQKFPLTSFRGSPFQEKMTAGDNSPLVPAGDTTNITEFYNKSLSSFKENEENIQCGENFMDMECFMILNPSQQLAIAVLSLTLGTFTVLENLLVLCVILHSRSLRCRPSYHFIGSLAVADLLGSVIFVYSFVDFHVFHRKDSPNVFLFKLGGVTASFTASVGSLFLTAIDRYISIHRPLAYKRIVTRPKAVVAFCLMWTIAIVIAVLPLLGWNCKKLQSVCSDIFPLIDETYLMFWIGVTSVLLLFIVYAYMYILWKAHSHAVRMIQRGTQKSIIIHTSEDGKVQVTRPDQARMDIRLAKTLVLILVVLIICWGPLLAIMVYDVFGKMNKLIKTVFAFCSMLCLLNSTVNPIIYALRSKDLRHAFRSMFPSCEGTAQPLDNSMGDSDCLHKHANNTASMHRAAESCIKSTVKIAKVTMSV
T4 sequence (P08515 whole entry): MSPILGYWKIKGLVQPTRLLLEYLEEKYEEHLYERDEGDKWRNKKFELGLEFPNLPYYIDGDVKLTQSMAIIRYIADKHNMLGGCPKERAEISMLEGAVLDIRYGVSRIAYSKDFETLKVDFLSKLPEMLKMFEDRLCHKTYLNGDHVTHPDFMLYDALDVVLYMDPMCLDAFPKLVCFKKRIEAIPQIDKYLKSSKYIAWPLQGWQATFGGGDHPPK

rat CRIP1a (from UniProt Q5M7A7 1-164)
Ca^2+ current facilitation ratio [1]: 1.26

NISIGGVLVPLELKSKEPDGDRVVYTGTYDTEGVTPTKSGERQPIQITMP (other, not shown: large carriers, Yeast two-hybrid construct) [CRIP1b exon 2 (amino acids 61-110 of SEQ ID NO:2)]
binding result [2]: no binding

B1: CRIP1a: CB1 receptor interacting protein 1a cloned from rat brain cDNA, 164 amino acids, SEQ ID NO:7 (protein, listed as Rattus sp.)
chain: MGDLPGIVRLSIALRIQPNDGPVFFKVDGQRFGQNRTIKLLTGSSYKVEVKIKPTTLQVENISIGGVLVPLELKCKEPDGERVVYTGIYDTEGVAPTKSGERQPIQITMPFTDIGTFETVWQVKFYNYHKRDHCQWGSPFSVIEYECKPNETRSLMWVNKESFL
effect on SR141716-induced increase of Ca2+ current [3]: did not significantly inhibit effect of SR141716 | Ca2+ current facilitation ratio (CB1 receptors; SCG neurons expressing CB1 receptors co-expressed with CRIP1a, 1.46±0.08 with CB1 alone): 1.26±0.03 | effect on agonist-induced (WIN55,212-2) inhibition of the Ca2+ current (CB1 receptors; SCG neurons expressing both CB1 and CRIP1a): had no effect on the agonist-induced inhibition of the Ca^2+ current | effect on SR141716-induced increase of Ca2+ current (constitutive activity of CB1) (CB1 receptors; co-expression of CRIP1a with CB1 receptors in SCG neurons): significantly inhibited the effect of SR141716 | effect on SR141716-induced increase of Ca2+ current (CB1 receptors; expression of CRIP1a alone, without CB1): had no effect

B2: S-tagged CRIP1b (amino acids at positions 34-128) expressed from pET30C in BL21(DE3) E. coli (other)
chain: QNRTIKLLTGSSYKVEVKIKPSTLQVENISIGGVLVPLELKSKEPDGDRVVYTGTYDTEGVTPTKSGERQPIQITMPECLEQRPQEISLTYECEE
notes: also called CB1-IP1; CRIP1b lysate; not shown: vector-encoded leader of pET30C with the S-tag
binding result [4]: no binding | interaction in yeast two hybrid [5]: enhanced

B3: CRIP1b: CB1 Receptor Interacting Protein 1b, 128 amino acid human polypeptide, SEQ ID NO:2; amino acids 34-128 used in pull-down (protein, listed as Homo sapiens)
chain: MGDLPGLVRLSIALRTQPNDGPVFYKVDGQRFGQNRTIKLLTGSSYKVEVKIKPSTLQVENISIGGVLVPLELKSKEPDGDRVVYTGTYDTEGVTPTKSGERQPIQITMPECLEQRPQEISLTYECEE
pull-down by GST-CB1 (418-472) on glutathione-Sepharose 4B (GST-CB1 (418-472); S-tagged CRIP1b (amino acids 34-128) bacterial lysate): pulled down | binding to glutathione Sepharose-4B matrix without CB1 fragment (control) (GST-CB1 (418-472); S-tagged CRIP1b bacterial lysate): did not bind to glutathione Sepharose-4B on its own | interaction in yeast two-hybrid with the most distal 9 amino acids of the CB1 receptor ([6]; minimal CB1 domain tested): strong interaction | interaction in yeast two-hybrid with the CB1 desensitization and internalization domains ([6]; separate C-terminal domains of CB1): neither of these domains interacted strongly

B4: CRIP1b exon 1 and exon 2: Exon 1 (amino acids 34-60 of SEQ ID NO:2) and exon 2 (amino acids 61-110) in combination (protein, listed as Homo sapiens)
chain: QNRTIKLLTGSSYKVEVKIKPSTLQVENISIGGVLVPLELKSKEPDGDRVVYTGTYDTEGVTPTKSGERQPIQITMP
interaction in yeast two hybrid [5]: positive interaction
